# Measurements taken from article PMC4800440 (Nature Communications, 2016).
# Where “and” joins values, the source holds several entries; their conditions need not be identical. Identical values can stand only once.
# T1: TIF2 (623–772), (His)6-thrombin-TIF2, co-expressed with GRtm-E (human, UniProt Q15596 623-772)
# T1 construct: Same limits as m2; here the tags were removed by thrombin cleavage; not shown: His6, N-terminal, cleaved
# T1 sequence (looked up): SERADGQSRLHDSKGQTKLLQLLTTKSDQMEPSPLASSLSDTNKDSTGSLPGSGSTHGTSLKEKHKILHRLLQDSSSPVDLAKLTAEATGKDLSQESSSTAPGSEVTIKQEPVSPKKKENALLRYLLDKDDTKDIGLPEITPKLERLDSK
# B1: human oestrogen receptor beta ligand-binding domain ERβ-EF (255–530) (domain or fragment, UniProt Q92731 255-530, looked up)
# chain: VRELLLDALSPEQLVLTLLEAEPPHVLISRPSAPFTEASMMMSLTKLADKELVHMISWAKKIPGFVELSLFDQVRLLESCWMEVLMMGLMWRSIDHPGKLIFAPDLVLDRDEGKCVEGILEIFDMLLATTSRFRELKLQHKEYLCVKAMILLNSSMYPLVTATQDADSSRKLAHLLNAVTDALVWVIAKSGISSQQQSMRLANLLMLLSHVRHASNKGMEHLLNMKCKNVVPVYDLLLEMLNAHVLRGCKSSITGSECSPAEDSKSKEGSQNPQSQ
# notes: Estradiol (E2) present throughout; Tag removed with TEV protease; the thioredoxin tag was separated from the complex by gel filtration; also called ERβ LBD; Trx-His-tev-ERβ-EF (255–530); source: E. coli BL21(DE3), with 10 μM estradiol; not shown: thioredoxin, N-terminal, cleaved; His, N-terminal, cleaved
# B2: TIF2 (623–772), His-tb-TIF2, expressed alone for the complex with ERβ-EF (domain or fragment, human, UniProt Q15596 623-772, looked up)
# chain: T1 sequence (looked up)
# notes: also called transcriptional intermediary factor 2
# B3: GR_LBD triple mutant C638A, W557T and W712S (residue 524–777) (domain or fragment, human, UniProt P04150 524-777, looked up)
# chain: TLPQLTPTLVSLLEVIEPEVLYAGYDSSVPDSTTRIMTTLNMLGGRQVIAAVKWAKAIPGFRNLHLDDQMTLLQYSWMFLMAFALGWRSYRQSSANLLCFAPDLIINEQRMTLPAMYDQCKHMLYVSSELHRLQVSYEEYLCMKTLLLLSSVPKDGLKSQELFDEIRMTYIKELGKAIVKREGNSSQNSQRFYQLTKLLDSMHEVVENLLNYCFQTFLDKTMSIEFPEMLAEIITNQIPKYSNGNIKKLLFHQK
# notes: Dexamethasone present throughout; Tags removed with thrombin; The bioinformatics methods print the cysteine as Cys 636, the production methods as C638A; also called GRtm-E; GRtm LBD; not shown: NusA, N-terminal, cleaved; His6, N-terminal, cleaved
# What was measured:
# [1] = molecular target: B2; experiment: native MS; settings: both partners purified
# [2] = molecular target: B1; experiment: SEC; settings: partners not purified
# [3] = molecular target: T1, TIF2 (623–772), (His)6-thrombin-TIF2, …; settings: both partners purified
binder,measurement,setting,value
B1,stoichiometry N,[1],2 ERβ-EF per TIF2
B2,binding result,[2],binds
B3,stoichiometry N,[3],2 GR per TIF2 and 1 GRtm-E per TIF2
